US20150037348A1 (AbbVie / Abbott, published 2015)

Assays:
[1] = target: T1, recombinant human IL-12 (rhIL-12) (human, UniProt P29459 23-219; P29460 23-328); assay: cell-based or functional assay
T1 sequence (looked up) 1: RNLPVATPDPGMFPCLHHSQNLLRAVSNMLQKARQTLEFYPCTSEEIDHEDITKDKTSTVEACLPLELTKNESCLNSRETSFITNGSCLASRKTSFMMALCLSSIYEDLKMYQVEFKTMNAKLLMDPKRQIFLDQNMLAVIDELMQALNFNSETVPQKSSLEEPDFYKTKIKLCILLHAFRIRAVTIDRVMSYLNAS
T1 sequence (looked up) 2: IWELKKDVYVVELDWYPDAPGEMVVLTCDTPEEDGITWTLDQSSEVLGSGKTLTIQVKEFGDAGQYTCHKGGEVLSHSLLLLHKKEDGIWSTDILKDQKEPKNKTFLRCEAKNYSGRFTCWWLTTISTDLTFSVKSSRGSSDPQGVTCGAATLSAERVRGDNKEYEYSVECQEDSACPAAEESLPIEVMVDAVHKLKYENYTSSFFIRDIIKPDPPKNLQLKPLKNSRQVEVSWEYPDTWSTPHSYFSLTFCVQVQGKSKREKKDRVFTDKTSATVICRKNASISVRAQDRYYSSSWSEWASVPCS

[2] = target: T1, recombinant human IL-12 (rhIL-12); assay: receptor binding assay, 125I-hIL-12 on PHA blasts
Method: PHA blast cells isolated as described above, were washed once and resuspended in binding buffer to a cell density of 2×10⁷ cells/ml. […] The cell pellet was examined for cell bound radioactivity using a gamma counter. […] Incubations were carried out in duplicate.

[3] = target: T1, recombinant human IL-12 (rhIL-12); assay: BIAcore SPR
[4] = target: T2, human interleukin 12 (p70 heterodimer of p35 and p40) (human, UniProt P29459 23-219; P29460 23-328); assay: BIAcore
T2 construct: Recombinant human IL-12; p35 and p40 linked by a disulfide bridge; also called hIL-12; IL-12
T2 sequence (looked up) 1: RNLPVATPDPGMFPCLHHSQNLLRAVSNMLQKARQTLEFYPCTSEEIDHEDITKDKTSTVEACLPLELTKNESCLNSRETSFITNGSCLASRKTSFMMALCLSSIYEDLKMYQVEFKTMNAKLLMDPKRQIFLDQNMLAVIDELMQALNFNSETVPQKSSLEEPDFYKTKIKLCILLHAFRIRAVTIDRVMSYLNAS
T2 sequence (looked up) 2: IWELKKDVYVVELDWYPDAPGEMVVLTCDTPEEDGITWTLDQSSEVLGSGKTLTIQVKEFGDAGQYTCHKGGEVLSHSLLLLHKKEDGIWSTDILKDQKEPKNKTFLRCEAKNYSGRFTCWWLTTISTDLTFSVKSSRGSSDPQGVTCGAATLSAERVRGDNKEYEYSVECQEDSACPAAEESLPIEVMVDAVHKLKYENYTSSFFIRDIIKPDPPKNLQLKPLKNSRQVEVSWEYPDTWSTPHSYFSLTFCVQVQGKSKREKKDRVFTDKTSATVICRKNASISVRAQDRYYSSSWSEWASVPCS

[5] = target: T1, recombinant human IL-12 (rhIL-12); assay: cell-based or functional assay; remark: listed apart in the source

Binder | IFN gamma IC50 [1] | PHA assay IC50 [1] | IC50 [2] | koff [3] | koff [4] | PHA assay IC50 (M) p70:p40 1:0 [5] | PHA assay IC50 (M) p70:p40 1:20 [5] | PHA assay IC50 (M) p70:p40 1:50 [5]
Y61 IgG germline (antibody, V domains shown) VH: QVQLVESGGGVVQPGRSLRLSCAASGFTFSSYGMHWVRQAPGKGLEWVAFIRYDGSNKYYADSVKGRFTISRDNSKNTLYLQMNSLRAEDTAVYYCKTHGSHDNWGQGTMVTVSS VL: QSVLTQPPSVSGAPGQRVTISCSGSRSNIGSNTVKWYQQLPGTAPKLLIYGNDQRPSGVPDRFSGSKSGTSASLAITGLQAEDEADYYCQSYDRGTHPALLFGTGTKVTVL | 0.16 nM | 0.13 nM | 0.016 nM | 0.00015 s⁻¹ | – | – | – | –
Y61-L94F (scFv, V domains shown) VH: QVQLVQSGGGVVQPGRSLRLSCAASGFTFSSYGMHWVRQAPGKGLEWVAFIRYDGSNKYYADSVKGRFTISRDNSKNTLYLQMKSLRAEDTAVYYCKTHGSHDNWGQGTMVTVSS VL: SYVLTQPPSVSGTPGQRVTISCSGGRSNIGSNTVKWYQQLPGTAPKLLIYGNDQRPSGVPDRFSGSKSGTSASLAITGVQAEDEADYYCQSYDRFTHPALLFGTGTKVTVL | – | 0.06 nM | – | – | 0.000236 s⁻¹ | – | – | –
Y61-L94N (scFv, V domains shown) VH: QVQLVQSGGGVVQPGRSLRLSCAASGFTFSSYGMHWVRQAPGKGLEWVAFIRYDGSNKYYADSVKGRFTISRDNSKNTLYLQMKSLRAEDTAVYYCKTHGSHDNWGQGTMVTVSS VL: SYVLTQPPSVSGTPGQRVTISCSGGRSNIGSNTVKWYQQLPGTAPKLLIYGNDQRPSGVPDRFSGSKSGTSASLAITGVQAEDEADYYCQSYDRNTHPALLFGTGTKVTVL | – | 0.08 nM | – | – | 0.000137 s⁻¹ | – | – | –
AO3 IgG germline (antibody, V domains shown, IgG with germline frameworks as named; only the CDR3s are tied to it) VH: QVQLVESGGGVVQPGRSLRLSCAASGFTFSSYGMHWVRQAPGKGLEWVAFIRYDGSNKYYADSVKGRFTISRDNSKNTLYLQMNSLRAEDTAVYYCKTHGSHDNWGQGTMVTVSS VL: QSVLTQPPSVSGAPGQRVTISCSGSRSNIGSNTVKWYQQLPGTAPKLLIYGNDQRPSGVPDRFSGSKSGTSASLAITGLQAEDEADYYCQSYDRGTHPLTMFGTGTKVTVL | – | 0.175 nM | 0.035 nM | 0.00025 s⁻¹ | – | – | – | –
Y61-L94Y (scFv, V domains shown) VH: QVQLVQSGGGVVQPGRSLRLSCAASGFTFSSYGMHWVRQAPGKGLEWVAFIRYDGSNKYYADSVKGRFTISRDNSKNTLYLQMKSLRAEDTAVYYCKTHGSHDNWGQGTMVTVSS VL: QSVLTQPPSVSGAPGQRVTISCSGSRSNIGSNTVKWYQQLPGTAPKLLIYGNDQRPSGVPDRFSGSKSGTSASLAITGLQAEDEADYYCQSYDRYTHPALLFGTGTKVTVL | – | 0.02 nM | 0.02 nM | – | 0.000131 s⁻¹ | – | – | –
136-15 (scFv) QVQLVQSGGGVVQPGRSLRLSCAASGFTFSSYGMHWVRQAPGKGLEWVAFIRYDGSNKYYADSVKGRFTISRDNSKNTLYLQMKSLRAEDTAVYYCKTHGSHDNWGQGTMVTVSSSYVLTQPPSVSGTPGQRVTISCSGSRSNIGSNTVKWYQQLPGTAPKLLIYGNDQRPSGVPDRFSGSKSGTSASLAITGVQAEDEADYYCQTYDKGFTGSSVFGTGTKVTVLG | – | – | – | – | – | 2e-09 M | 5e-09 M | 4e-09 M
149-5 (scFv) QVQLVQSGGGVVQPGRSLRLSCAASGFTFSSYGMHWVRQAPGKGLEWVAFIRYDGSNKYYADSVKGRFTISRDNSKNTLYLQMKSLRAEDTAVYYCTTHGSHDTWGQGTMVTVSSSYVLTQPPSVSGTPGQRVTISCSGGRSNIGSNTVKWYQQLPGTAPKLLIYGNDQRPSGVPDRFSGSKSGTSASLAITGVQAEDEADYYCQSYDSSLWGTRVFGTGTKVTVLG | – | – | – | – | – | 6.5e-09 M | 7e-09 M | 4e-09 M
149-6 (scFv) QVQLVQSGGGVVQPGRSLRLSCAASGFTFSSYGMHWVRQAPGKGLEWVAFIRYDGSNKYYADSVKGRFTISRDNSKNTLYLQMKSLRAEDTAVYYCTTHGSHDNWGQGTMVTVSSSYVLTQPPSVSGTPGQRVTISCSGGRSNIVSNTVKWYQQLPGTAPKLLIYGNDQRPSGVPDRFSGSKSGTSASLAITGVQAEDEADYYCQSYDRGFTGSRVFGTGTKVTVLG | – | – | – | – | – | 9e-10 M | 1e-09 M | 1e-09 M
